From patent US20050118674A1, “Engineering of Controlled Deamidation Rates in Peptides, Proteins, and Similar Structures” (priority 2003, published 2005) come the findings set out here.

The series is described as follows: First-order nonenzymatic deamidation of pentapeptides in Tris buffer. The series is classed as physicochemical. Particulars: 0.15 M Tris HCl; for First-Order Deamidation Halftimes of GlyXxxAsnYyyGly: pH 7.4, 37.0° C., Asn pentapeptides; for First-Order Deamidation Halftimes of GlyXxxGlnYyyGly: pH 7.4, 37.0 ° C., Gln pentapeptides, 52 values measured, rest derived from surface fitting. The gist of the method:
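First-order deamidation rates determined for XxxAsnYyy and XxxGlnYyy pentapeptides in 0.15 M Tris buffer, pH 7.4, 37° C. Not all values were measured directly: several Asn rates were estimated and most Gln rates came from surface fitting.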

In the case of “GlyTrpAsnSerGly (GWNSG; printed: GlyTrpAsnSerGly)”, the “First-Order Deamidation Halftimes of GlyXxxAsnYyyGly” value stood at 15.5 days. Still for that read-out and setting: then “GlyTrpAsnThrGly (GWNTG; printed: GlyTrpAsnThrGly)”, with 38.9 days.

For the substance “GlyTrpAsnTrpGly (GWNWG; printed: GlyTrpAsnTrpGly)”, the “First-Order Deamidation Halftimes of GlyXxxAsnYyyGly” value worked out at 135 days. Take “GlyTrpAsnTyrGly (GWNYG; printed: GlyTrpAsnTyrGly)”: the “First-Order Deamidation Halftimes of GlyXxxAsnYyyGly” value is reported as 92.6 days. For “GlyTrpAsnValGly (GWNVG; printed: GlyTrpAsnValGly)”, the “First-Order Deamidation Halftimes of GlyXxxAsnYyyGly” value is 226 days. Regarding “GlyTrpGlnAlaGly (GWQAG; printed: GlyTrpGlnAlaGly)”, the “First-Order Deamidation Halftimes of GlyXxxGlnYyyGly” value came to 7400 days. Same read-out and setting: then “GlyTrpGlnArgGly (GWQRG; printed: GlyTrpGlnArgGly)”, with 8300 days; and “GlyTrpGlnAspGly (GWQDG; printed: GlyTrpGlnAspGly)”, with 8800 days; and “GlyTrpGlnCysGly (GWQCG; printed: GlyTrpGlnCysGly)”, with 2300 days. On the same count and under the same terms, next, “GlyTrpGlnGluGly (GWQEG; printed: GlyTrpGlnGluGly)”: 8500 days; “GlyTrpGlnGlyGly (GWQGG; printed: GlyTrpGlnGlyGly)”: 850 days. Consider “GlyTrpGlnHisGly (GWQHG; printed: GlyTrpGlnHisGly)”, for which the “First-Order Deamidation Halftimes of GlyXxxGlnYyyGly” value is given as 7500 days. Consider “GlyTrpGlnIleGly (GWQIG; printed: GlyTrpGlnIleGly)”, for which the “First-Order Deamidation Halftimes of GlyXxxGlnYyyGly” value was determined as 8000 days. On the same count and under the same terms, next, “GlyTrpGlnLeuGly (GWQLG; printed: GlyTrpGlnLeuGly)”: 7900 days.

In the case of “GlyTrpGlnLysGly (GWQKG; printed: GlyTrpGlnLysGly)”, the “First-Order Deamidation Halftimes of GlyXxxGlnYyyGly” value was 7600 days. Same read-out and setting: then “GlyTrpGlnMetGly (GWQMG; printed: GlyTrpGlnMetGly)”, with 5300 days. On the same count and under the same terms, next, “GlyTrpGlnPheGly (GWQFG; printed: GlyTrpGlnPheGly)”: 8600 days; “GlyTrpGlnProGly (GWQPG; printed: GlyTrpGlnProGly)”: 11000 days; “GlyTrpGlnSerGly (GWQSG; printed: GlyTrpGlnSerGly)”: 6500 days. Regarding “GlyTrpGlnThrGly (GWQTG; printed: GlyTrpGlnThrGly)”, the “First-Order Deamidation Halftimes of GlyXxxGlnYyyGly” value is 5600 days.

For “GlyTrpGlnTrpGly (GWQWG; printed: GlyTrpGlnTrpGly)”, the “First-Order Deamidation Halftimes of GlyXxxGlnYyyGly” value worked out at 19000 days.

Consider “GlyTrpGlnTyrGly (GWQYG; printed: GlyTrpGlnTyrGly)”, for which the “First-Order Deamidation Halftimes of GlyXxxGlnYyyGly” value turned out to be 14000 days. For “GlyTrpGlnValGly (GWQVG; printed: GlyTrpGlnValGly)”, the “First-Order Deamidation Halftimes of GlyXxxGlnYyyGly” value is reported as 8200 days. For the substance “GlyTyrAsnAlaGly (GYNAG; printed: GlyTyrAsnAlaGly)”, the “First-Order Deamidation Halftimes of GlyXxxAsnYyyGly” value came out at 24.3 days. The same measure, in the same setting: next, GlyTyrAsnAmCysGly: 33.3 days. Same read-out and setting: then “GlyTyrAsnArgGly (GYNRG; printed: GlyTyrAsnArgGly)”, with 56.9 days. On the same count and under the same terms, then “GlyTyrAsnAspGly (GYNDG; printed: GlyTyrAsnAspGly)”, with 28.4 days. In the case of “GlyTyrAsnCysGly (GYNCG; printed: GlyTyrAsnCysGly)”, the “First-Order Deamidation Halftimes of GlyXxxAsnYyyGly” value amounted to 48.6 days. On the same count and under the same terms, next, “GlyTyrAsnGluGly (GYNEG; printed: GlyTyrAsnGluGly)”: 41.0 days; “GlyTyrAsnGlyGly (GYNGG; printed: GlyTyrAsnGlyGly)”: 1.49 days; “GlyTyrAsnHisGly (GYNHG; printed: GlyTyrAsnHisGly)”: 10.2 days. Same read-out and setting: next, “GlyTyrAsnIleGly (GYNIG; printed: GlyTyrAsnIleGly)”: 306 days; “GlyTyrAsnLeuGly (GYNLG; printed: GlyTyrAsnLeuGly)”: 118 days; “GlyTyrAsnLysGly (GYNKG; printed: GlyTyrAsnLysGly)”: 55.1 days. As for “GlyTyrAsnMetGly (GYNMG; printed: GlyTyrAsnMetGly)”, the “First-Order Deamidation Halftimes of GlyXxxAsnYyyGly” value was found to be 64.3 days.

As for “GlyTyrAsnPheGly (GYNFG; printed: GlyTyrAsnPheGly)”, the “First-Order Deamidation Halftimes of GlyXxxAsnYyyGly” value was found to be 58.0 days. Same read-out and setting: then “GlyTyrAsnProGly (GYNPG; printed: GlyTyrAsnProGly)”, with 9830 days.

For the substance “GlyTyrAsnSerGly (GYNSG; printed: GlyTyrAsnSerGly)”, the “First-Order Deamidation Halftimes of GlyXxxAsnYyyGly” value came out at 11.9 days.

Take “GlyTyrAsnThrGly (GYNTG; printed: GlyTyrAsnThrGly)”: the “First-Order Deamidation Halftimes of GlyXxxAsnYyyGly” value is 38.1 days. Still for that read-out and setting: next, “GlyTyrAsnTrpGly (GYNWG; printed: GlyTyrAsnTrpGly)”: 120 days. “GlyTyrAsnTyrGly (GYNYG; printed: GlyTyrAsnTyrGly)”: the “First-Order Deamidation Halftimes of GlyXxxAsnYyyGly” value worked out at 70.6 days. The same measure, in the same setting: then “GlyTyrAsnValGly (GYNVG; printed: GlyTyrAsnValGly)”, with 241 days.

“GlyTyrGlnAlaGly (GYQAG; printed: GlyTyrGlnAlaGly)”: the “First-Order Deamidation Halftimes of GlyXxxGlnYyyGly” value is listed as 7300 days. As for “GlyTyrGlnArgGly (GYQRG; printed: GlyTyrGlnArgGly)”, the “First-Order Deamidation Halftimes of GlyXxxGlnYyyGly” value is reported as 8100 days. The same measure, in the same setting: then “GlyTyrGlnAspGly (GYQDG; printed: GlyTyrGlnAspGly)”, with 8600 days; and “GlyTyrGlnCysGly (GYQCG; printed: GlyTyrGlnCysGly)”, with 2200 days. The same measure, in the same setting: next, “GlyTyrGlnGluGly (GYQEG; printed: GlyTyrGlnGluGly)”: 8300 days; “GlyTyrGlnGlyGly (GYQGG; printed: GlyTyrGlnGlyGly)”: 850 days.

Turning to “GlyTyrGlnHisGly (GYQHG; printed: GlyTyrGlnHisGly)”, the “First-Order Deamidation Halftimes of GlyXxxGlnYyyGly” value came to 7400 days. As to “GlyTyrGlnIleGly (GYQIG; printed: GlyTyrGlnIleGly)”, the “First-Order Deamidation Halftimes of GlyXxxGlnYyyGly” value is listed as 7900 days. On the same count and under the same terms, then “GlyTyrGlnLeuGly (GYQLG; printed: GlyTyrGlnLeuGly)”, with 7800 days. The same measure, in the same setting: then “GlyTyrGlnLysGly (GYQKG; printed: GlyTyrGlnLysGly)”, with 7500 days; and “GlyTyrGlnMetGly (GYQMG; printed: GlyTyrGlnMetGly)”, with 5300 days. As for “GlyTyrGlnPheGly (GYQFG; printed: GlyTyrGlnPheGly)”, the “First-Order Deamidation Halftimes of GlyXxxGlnYyyGly” value amounted to 8700 days. Turning to “GlyTyrGlnProGly (GYQPG; printed: GlyTyrGlnProGly)”, the “First-Order Deamidation Halftimes of GlyXxxGlnYyyGly” value was 11000 days. On the same count and under the same terms, then “GlyTyrGlnSerGly (GYQSG; printed: GlyTyrGlnSerGly)”, with 6400 days; and “GlyTyrGlnThrGly (GYQTG; printed: GlyTyrGlnThrGly)”, with 5600 days. Same read-out and setting: next, “GlyTyrGlnTrpGly (GYQWG; printed: GlyTyrGlnTrpGly)”: 18000 days. Still for that read-out and setting: next, “GlyTyrGlnTyrGly (GYQYG; printed: GlyTyrGlnTyrGly)”: 14000 days.

On to “GlyTyrGlnValGly (GYQVG; printed: GlyTyrGlnValGly)”, for which the “First-Order Deamidation Halftimes of GlyXxxGlnYyyGly” value is reported as 8000 days. With “GlyValAsnAlaGly (GVNAG; printed: GlyValAsnAlaGly)”, the “First-Order Deamidation Halftimes of GlyXxxAsnYyyGly” value worked out at 27.5 days.

As to GlyValAsnAmCysGly, the “First-Order Deamidation Halftimes of GlyXxxAsnYyyGly” value was determined as 34.7 days. Same read-out and setting: next, “GlyValAsnArgGly (GVNRG; printed: GlyValAsnArgGly)”: 67.4 days. Still for that read-out and setting: then “GlyValAsnAspGly (GVNDG; printed: GlyValAsnAspGly)”, with 33.5 days; and “GlyValAsnCysGly (GVNCG; printed: GlyValAsnCysGly)”, with 63.2 days; and “GlyValAsnGluGly (GVNEG; printed: GlyValAsnGluGly)”, with 64.8 days. Still for that read-out and setting: next, “GlyValAsnGlyGly (GVNGG; printed: GlyValAsnGlyGly)”: 1.23 days; “GlyValAsnHisGly (GVNHG; printed: GlyValAsnHisGly)”: 10.2 days. Consider “GlyValAsnIleGly (GVNIG; printed: GlyValAsnIleGly)”, for which the “First-Order Deamidation Halftimes of GlyXxxAsnYyyGly” value amounted to 366 days. On to “GlyValAsnLeuGly (GVNLG; printed: GlyValAsnLeuGly)”, for which the “First-Order Deamidation Halftimes of GlyXxxAsnYyyGly” value is 154 days. For “GlyValAsnLysGly (GVNKG; printed: GlyValAsnLysGly)”, the “First-Order Deamidation Halftimes of GlyXxxAsnYyyGly” value is recorded as 63.8 days.

As for “GlyValAsnMetGly (GVNMG; printed: GlyValAsnMetGly)”, the “First-Order Deamidation Halftimes of GlyXxxAsnYyyGly” value is 65.7 days. The same measure, in the same setting: next, “GlyValAsnPheGly (GVNFG; printed: GlyValAsnPheGly)”: 66.6 days.
